Target: HIV-1 reverse transcriptase p66 (HIV-1)
Assay: SEC

How did the stoichiometry N turn out when “HIV-1 reverse transcriptase p66 (enzyme)” was run?
The stoichiometry N was 2.

From publication PMC5988984
